Measurements taken from publication PMC12085581, “Auricular malformations are driven by copy number variations in a hierarchical enhancer cluster and a dominant enhancer recapitulates human pathogenesis”.

Molecular target: T1, MEIS1 (human, UniProt O00470 1-390)
T1 sequence: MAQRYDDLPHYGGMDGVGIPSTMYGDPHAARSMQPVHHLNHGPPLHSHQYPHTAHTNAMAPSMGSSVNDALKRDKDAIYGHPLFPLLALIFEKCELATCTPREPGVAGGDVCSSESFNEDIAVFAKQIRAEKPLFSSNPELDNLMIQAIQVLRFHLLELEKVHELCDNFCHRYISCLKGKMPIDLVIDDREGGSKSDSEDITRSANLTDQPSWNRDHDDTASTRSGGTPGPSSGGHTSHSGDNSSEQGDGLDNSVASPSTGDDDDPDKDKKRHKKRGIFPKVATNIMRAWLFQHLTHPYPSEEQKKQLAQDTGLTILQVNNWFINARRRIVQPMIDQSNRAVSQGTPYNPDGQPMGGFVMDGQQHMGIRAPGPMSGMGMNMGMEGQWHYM
Test: EMSA; EMSA: LightShift Chemiluminescent EMSA kit per manufacturer (buffer not given); protein stock in 50 mM Tris, 200 mM NaCl, 10 mM 2-mercaptoethanol, 10% glycerol, pH 7.5. Pull-down: streptavidin beads, 1 h at 4 C, PBS washes
Conditions: protein: recombinant; tags: His6-MBP-TEV, tag removed by TEV protease; label: 5' biotin on both strands; blunt

B1: probe1 (hEC1 MEIS1 site) (dsDNA)
DNA 1: GGAAATGCGGCCCATCAATCATAAACTGATTACAAATTCGTCA
DNA 2: TGACGAATTTGTAATCAGTTTATGATTGATGGGCCGCATTTCC
binding result: binds
